Data as given in the supplement of paper PMC9876800.

Tested on: peptide library, one residue held at a place counted from the S/T acceptor
Test: relative phosphorylation of the sub-library (ratio to the mean residue at this position); higher = residue favoured
Details: human
How it was run: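 Each biotinylated degenerate peptide sub-library fixed one residue at one position around a central Ser/Thr and was incubated with a purified recombinant kinase, a human or orthologue construct, in 384-well plates. The 90 min reactions, under kinase-specific conditions, contained 50 μM peptide and 50 μM ATP spiked with γ-32P-ATP. Phosphorylation was read by phosphorimaging spots on streptavidin membranes and quantifying them by densitometry. Relative sub-library phosphorylation expresses each value as a ratio to the mean residue at that position.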

NUAK1, construct: Full length, sequence (O60285 whole entry, looked up): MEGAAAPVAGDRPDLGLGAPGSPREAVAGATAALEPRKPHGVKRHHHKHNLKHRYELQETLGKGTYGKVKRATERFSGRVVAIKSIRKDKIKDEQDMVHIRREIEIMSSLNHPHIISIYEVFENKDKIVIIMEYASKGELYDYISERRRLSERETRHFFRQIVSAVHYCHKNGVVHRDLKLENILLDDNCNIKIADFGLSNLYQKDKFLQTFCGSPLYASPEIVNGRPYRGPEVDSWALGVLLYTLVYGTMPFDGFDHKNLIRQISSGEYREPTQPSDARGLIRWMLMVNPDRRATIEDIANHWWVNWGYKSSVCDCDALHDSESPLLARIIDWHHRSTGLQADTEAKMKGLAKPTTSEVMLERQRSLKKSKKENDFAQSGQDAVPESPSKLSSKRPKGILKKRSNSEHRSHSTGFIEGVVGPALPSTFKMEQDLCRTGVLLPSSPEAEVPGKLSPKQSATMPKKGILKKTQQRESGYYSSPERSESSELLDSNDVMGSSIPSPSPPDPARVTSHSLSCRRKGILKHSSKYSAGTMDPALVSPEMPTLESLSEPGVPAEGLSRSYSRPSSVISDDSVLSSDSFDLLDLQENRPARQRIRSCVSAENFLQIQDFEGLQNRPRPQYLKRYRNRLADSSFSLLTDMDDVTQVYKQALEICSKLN

NUAK1, construct: Full length (from UniProt O60285)
relative phosphorylation
Details	at +1	at +2	at +3	at +4	at -1	at -2	at -3	at -4	at -5
A fixed	0.726	0.749	0.566	0.716	1.14	1.47	0.552	1.04	0.835
D fixed	0.449	0.564	0.844	0.464	0.661	0.734	0.4	0.474	0.611
E fixed	0.545	0.312	0.418	0.359	0.488	0.532	0.397	0.867	0.436
F fixed	2.2	0.695	1.33	1.13	0.475	0.586	0.472	0.91	1.12
G fixed	0.839	1.15	0.566	0.81	1.27	0.931	0.454	0.673	0.609
H fixed	0.927	1.14	1.56	1.08	0.951	0.821	1.12	0.995	0.772
I fixed	0.559	1.16	0.888	1.76	0.261	0.557	0.322	0.792	2.04
K fixed	1.19	1.09	1.22	1.01	2.27	0.955	2.72	1.16	1.2
L fixed	0.666	1.19	0.907	2.45	0.613	0.489	0.395	1.12	2.08
M fixed	1.1	1.17	1.08	1.69	0.937	0.837	0.598	1.56	1.33
N fixed	1.2	1.52	1.53	0.786	1.58	4.11	0.691	0.776	0.631
P fixed	0.483	0.753	0.434	0.765	1.63	0.53	0.665	0.929	0.727
Q fixed	1.72	0.954	1	0.743	1.37	1.51	0.786	0.934	0.582
R fixed	1.25	1.7	0.909	0.617	1.6	0.926	6.15	1.41	1.24
V fixed	0.687	1.02	0.735	0.947	0.375	0.864	0.288	0.924	1.21
W fixed	0.935	0.929	1.58	0.809	0.571	0.583	0.521	1.54	0.775
Y fixed	1.51	0.889	1.42	0.869	0.822	0.554	0.468	0.891	0.802
pThr fixed	0.684	0.497	0.396	0.362	0.291	0.397	0.352	0.518	0.373
pTyr fixed	0.597	0.273	0.337	0.346	0.746	0.419	0.445	0.438	0.547
